In the supplement of paper PMC7877785:
± gives the uncertainty stated by the source.

Assay: self-splicing fitness, log relative to wild type (ln ratio); higher = more splicing; Tetrahymena group I intron in knt gene, E. coli kanamycin selection, DiMSum; sequences stand for … in CUCUCU…GGAGGGAAAAGUUAUCAGGCAUGCACCUGGUAGCUAGUCUUUAAACCAAUAGAUUGCAUCGGUUUAAAAGGCAAGACCGUCAAAUUGCGGGAAAGGGGUCAACAGCCGUUCAGUACCAAGUCUCAGGGGAAACUUUGAGAUGGCCUUGCAAAGGGUAUGGUAAUAAGCUGACGGACAUGGUCCUAACCACGCAGCCAAGUCCUAAGUCAACAGAUCUUCUGUUGAUAUGGAUGCAGUUCACAGACUAAAUGUCGGUCGGGGAAGAUGUAUUCUUCUCAUAAGAUAUAGUCGGACCUCUCCUUAAUGGGAGCUAGCGGAUGAAGUGAUGCAACACUGGAGCCGCUGGGAACUAAUUUGUAUGCGAAAGUAUAUUGAUUAGUUUUGGAGUACUCGUGGUCG
Outline: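 Colonies from six replicate transformations of E. coli BL21(DE3) were pooled and amplicon-sequenced on an Illumina HiSeq 2500. The library placed an intron with all eight P1ex-region nucleotides randomised inside the knt kanamycin-resistance gene on pET-22b(+), and cells grew overnight at 37°C or 30°C on LB agar with or without 25 μg/mL kanamycin (plus 100 μg/mL carbenicillin, 50 μM IPTG, 0.2% rhamnose). Fitness is the DiMSum error-weighted combination of wild-type-normalised replicate fold changes, kanamycin versus none.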

Sequence	self-splicing fitness (ln) (30 °C)	self-splicing fitness (ln) (37 °C)
UUACAGCAAUAUUACGGGGC	-3.36 ± 0.48	-1.17 ± 0.45
UUACAGCAAUAUUACGGGUC	-3.67 ± 0.19	-2.51 ± 0.15
UUACAGCAAUAUUACGGUUC	-1.97 ± 0.1	-1.32 ± 0.11
UUACAGCAAUAUUACGGUUU	-0.925 ± 0.046	0.136 ± 0.066
UUACAGCAAUAUUACGUGUU	-3.43 ± 0.14	-2.13 ± 0.13
UUACAGCAAUAUUACGUUUA	-1.3 ± 0.11	-0.512 ± 0.12
UUAGAGCAAUAUUACGAGGA	-2.99 ± 0.34	-0.578 ± 0.32
UUAGAGCAAUAUUACGAUAA	-0.0105 ± 0.13	0.418 ± 0.18
UUAGAGCAAUAUUACGAUAU	-1.72 ± 0.18	-1.54 ± 0.23
UUAGAGCAAUAUUACGCCUA	-0.268 ± 0.13	-0.0554 ± 0.19
UUAGAGCAAUAUUACGCGGC		-0.994 ± 0.26
UUAGAGCAAUAUUACGGAUG	-3.13 ± 0.19	-0.15 ± 0.15
UUAGAGCAAUAUUACGGCAU	-2.51 ± 0.28	-1.16 ± 0.23
UUAGAGCAAUAUUACGGGAA	-2.25 ± 0.16	-0.296 ± 0.16
UUAGAGCAAUAUUACGGGGC	-3.24 ± 0.44	
UUAGAGCAAUAUUACGGUCA	-1.7 ± 0.15	-1.34 ± 0.14
UUAGAGCAAUAUUACGUAAA	-2.69 ± 0.17	0.396 ± 0.13
UUAGAGCAAUAUUACGUACA	-1.7 ± 0.26	-1.51 ± 0.33
UUAGAGCAAUAUUACGUACG	-0.844 ± 0.11	-1.06 ± 0.17
UUAGAGCAAUAUUACGUGUA	-3.04 ± 0.18	-1.83 ± 0.17
UUAGAGCAAUAUUACGUUAA	-1.9 ± 0.13	-0.197 ± 0.15
UUAUAGCAAUAUUACGAAGG	-3.25 ± 0.39	-1.67 ± 0.33
UUAUAGCAAUAUUACGAUGA	-0.778 ± 0.12	0.516 ± 0.14
UUAUAGCAAUAUUACGCAAA	-2.85 ± 0.22	-1.51 ± 0.16
UUAUAGCAAUAUUACGCAGA	-2.06 ± 0.14	-1.25 ± 0.099
UUAUAGCAAUAUUACGCAGU		-1.61 ± 0.33

Sequence	self-splicing fitness (ln) (30 °C)	self-splicing fitness (ln) (37 °C)
UUAUAGCAAUAUUACGCCUC	-2.77 ± 0.39	-1.59 ± 0.3
UUAUAGCAAUAUUACGGACG	-1.25 ± 0.38	-0.128 ± 0.34
UUAUAGCAAUAUUACGGACU	-2.04 ± 0.35	-0.965 ± 0.23
UUAUAGCAAUAUUACGGGGU	-2.93 ± 0.28	-2.15 ± 0.31
UUAUAGCAAUAUUACGUCGA	-0.277 ± 0.13	-0.308 ± 0.15
UUAUAGCAAUAUUACGUCGG	-1.58 ± 0.27	-0.309 ± 0.24
UUAUAGCAAUAUUACGUGGA	-2.5 ± 0.41	-1.23 ± 0.22
UUAUAGCAAUAUUACGUGUU	-4.16 ± 0.33	-3.11 ± 0.33
UUAUAGCAAUAUUACGUUCC		-2.09 ± 0.48
UUCAAGCAAUAUUACGACCG	-1.29 ± 0.14	0.147 ± 0.18
UUCAAGCAAUAUUACGACUG	-2.38 ± 0.15	-1.33 ± 0.12
UUCAAGCAAUAUUACGAGCA	-1.01 ± 0.1	-0.0614 ± 0.12
UUCAAGCAAUAUUACGAGCC	-2.64 ± 0.32	
UUCAAGCAAUAUUACGAUAG	-1.81 ± 0.14	-0.986 ± 0.17
UUCAAGCAAUAUUACGAUUA	-0.129 ± 0.08	0.183 ± 0.081
UUCAAGCAAUAUUACGCACG	-1.11 ± 0.11	-0.411 ± 0.14
UUCAAGCAAUAUUACGCCCG	-1.16 ± 0.1	-0.594 ± 0.15
UUCAAGCAAUAUUACGCCCU	-1.34 ± 0.14	-0.18 ± 0.16
UUCAAGCAAUAUUACGCCUA	0.0224 ± 0.061	0.182 ± 0.077
UUCAAGCAAUAUUACGCGGU	-2.91 ± 0.17	-1.96 ± 0.17
UUCAAGCAAUAUUACGCUCC	-1.54 ± 0.16	-1.86 ± 0.24
UUCAAGCAAUAUUACGGCAG	-1.05 ± 0.077	-0.45 ± 0.11
UUCAAGCAAUAUUACGGCCG	-0.747 ± 0.14	0.0541 ± 0.16
UUCAAGCAAUAUUACGGCUU	-2.58 ± 0.14	-1.16 ± 0.14
UUCAAGCAAUAUUACGGGAA	-1.32 ± 0.11	-0.286 ± 0.094
UUCAAGCAAUAUUACGGGUC	-4.54 ± 0.32	-1.53 ± 0.14

Sequence	self-splicing fitness (ln) (30 °C)	self-splicing fitness (ln) (37 °C)
UUCAAGCAAUAUUACGUCAC	-3.57 ± 0.34	-2.42 ± 0.39
UUCAAGCAAUAUUACGUCGG	-0.722 ± 0.067	-0.516 ± 0.081
UUCAAGCAAUAUUACGUGAC	-4.47 ± 0.39	-2.69 ± 0.27
UUCAAGCAAUAUUACGUGAG	-0.36 ± 0.071	0.0932 ± 0.088
UUCAAGCAAUAUUACGUGGA	-2.17 ± 0.17	-2.52 ± 0.15
UUCCAGCAAUAUUACGAGAG	-1.82 ± 0.093	-0.571 ± 0.13
UUCCAGCAAUAUUACGAGCG	-1.6 ± 0.096	-1.26 ± 0.1
UUCCAGCAAUAUUACGAGGC	-3.72 ± 0.35	-2.58 ± 0.27
UUCCAGCAAUAUUACGAUCC	-1.46 ± 0.45	
UUCCAGCAAUAUUACGAUUA	-0.297 ± 0.12	-0.0509 ± 0.1
UUCCAGCAAUAUUACGCAAC	-3.02 ± 0.44	
UUCCAGCAAUAUUACGCAAU	-2.02 ± 0.17	-1.31 ± 0.14
UUCCAGCAAUAUUACGCGAA	-1.64 ± 0.079	-0.865 ± 0.089
UUCCAGCAAUAUUACGGAUC	-3.83 ± 0.35	-1.75 ± 0.16
UUCCAGCAAUAUUACGGGAA	-2.87 ± 0.35	-2.84 ± 0.34
UUCCAGCAAUAUUACGGGAU	-3.25 ± 0.11	-3.13 ± 0.19
UUCCAGCAAUAUUACGGUAG	-0.0875 ± 0.065	0.438 ± 0.079
UUCCAGCAAUAUUACGGUCU	-2.54 ± 0.33	-2.13 ± 0.3
UUCCAGCAAUAUUACGGUGU	-1.19 ± 0.092	-1.1 ± 0.13
UUCCAGCAAUAUUACGUGAG	0.114 ± 0.062	0.597 ± 0.08
UUCCAGCAAUAUUACGUUAG	-2.57 ± 0.17	-0.904 ± 0.16
UUCGAGCAAUAUUACGAAGC	-2.63 ± 0.33	-1.91 ± 0.36
UUCGAGCAAUAUUACGACAU	-3.097 ± 0.026	-1.94 ± 0.038
UUCGAGCAAUAUUACGACGA	-0.356 ± 0.3	-0.0591 ± 0.21
UUCGAGCAAUAUUACGAGCG	-3.41 ± 0.4	-1.47 ± 0.2
UUCGAGCAAUAUUACGAUGA	-0.824 ± 0.12	-0.0637 ± 0.1
